The values below come from patent EP4667483A1 (JCR Pharmaceuticals Co., Ltd., dated 2024).

Assay [1] deals with T1, human transferrin receptor (hTfR) (human, UniProt P02786 89-760).
T1 construct: also called human TfR; TfR1
The assay is described as follows: SPR, Biacore T200, hTfR captured by anti-His antibody on CM3 chip, pH 7.4. In general terms: Surface plasmon resonance follows binding to a sensor surface in real time, without labels.
T1 sequence (P02786 89-760 limits assumed): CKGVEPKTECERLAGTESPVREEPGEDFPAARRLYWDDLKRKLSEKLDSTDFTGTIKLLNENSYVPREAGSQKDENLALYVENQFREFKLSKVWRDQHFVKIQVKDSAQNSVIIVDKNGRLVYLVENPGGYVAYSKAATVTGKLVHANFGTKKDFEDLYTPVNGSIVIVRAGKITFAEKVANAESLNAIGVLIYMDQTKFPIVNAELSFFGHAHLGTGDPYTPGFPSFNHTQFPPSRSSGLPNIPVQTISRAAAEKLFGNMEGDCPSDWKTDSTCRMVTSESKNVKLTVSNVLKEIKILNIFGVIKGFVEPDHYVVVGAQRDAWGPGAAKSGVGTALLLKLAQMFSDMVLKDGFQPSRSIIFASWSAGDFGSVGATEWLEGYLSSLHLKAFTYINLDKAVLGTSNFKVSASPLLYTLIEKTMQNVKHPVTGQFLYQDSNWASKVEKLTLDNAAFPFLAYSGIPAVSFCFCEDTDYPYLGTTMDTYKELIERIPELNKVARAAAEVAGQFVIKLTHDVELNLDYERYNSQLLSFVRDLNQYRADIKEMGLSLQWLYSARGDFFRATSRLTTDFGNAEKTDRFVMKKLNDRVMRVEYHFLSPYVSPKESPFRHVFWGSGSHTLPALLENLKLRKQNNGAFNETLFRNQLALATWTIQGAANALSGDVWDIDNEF

The target in assay [2] is T1, human transferrin receptor (hTfR). The assay is described as follows: SPR, Biacore T200, hTfR immobilised on NTA chip, pH 6.0.
Assay [3] has the same target. The assay is described as follows: SPR; ratio of koff at pH 6.0 to koff at pH 7.4.
Target sequence in this assay (P02786 89-760 limits assumed): as above
Assay [4] shares this target. Description: SPR; ratio of KD at pH 6.0 to KD at pH 7.4.
Target sequence in this assay (P02786 89-760 limits assumed): as above
Assay [5] deals with T2, human transferrin receptor (hTfR) (human, UniProt P02786 89-760).
T2 construct: also called human TfR; TfR1
The assay is described as follows: SPR, Biacore T200, pH 7.4, hTfR captured by anti-His antibody on CM3 chip, single-cycle kinetics.
T2 sequence (P02786 89-760 limits assumed): as above

For assay [6], the target named is T3, human transferrin receptor (hTfR) (human, UniProt P02786 89-760).
T3 construct: a His tag is implied by the NTA chip and the anti-His capture; also called human TfR; TfR1
Description: SPR, pH 6.0.
T3 sequence (P02786 89-760 limits assumed): as above

Assay [7] deals with T3, human transferrin receptor (hTfR). Description: SPR, KD pH 6.0 / KD pH 7.4.
The target is the same in assay [8]. The assay is described as follows: SPR, pH 7.4.
Target sequence in this assay (P02786 89-760 limits assumed): as above
For assay [9] the target is unchanged. The assay is described as follows: SPR, koff pH 6.0 / koff pH 7.4.
Assay [10] has as its target T4, human transferrin receptor (hTfR) (human, UniProt P02786 89-760).
T4 construct: Recombinant hTfR; at pH 7.4 captured on the chip by an anti-His tag antibody, at pH 6.0 immobilized on an NTA chip, so it carries a His tag; also called human TfR; TfR1
Description: SPR, koff at pH 6.0 over koff at pH 7.4.

Assay [11] concerns the target T4, human transferrin receptor (hTfR). Description: SPR (Biacore T200), pH 7.4, hTfR on chip.
Assay [12] shares this target. Description: SPR (Biacore T200), pH 6.0, hTfR on chip.
For assay [13] the target is unchanged. The assay is described as follows: SPR, KD at pH 6.0 over KD at pH 7.4.
Assay [14] addresses T1, human transferrin receptor (hTfR). The assay is described as follows: SPR, Biacore T200, hTfR captured by anti-His antibody on CM3 chip, pH 7.4. The source holds these as a separate data set.
The target is the same in assay [15]. Description: SPR, Biacore T200, hTfR immobilised on NTA chip, pH 6.0. The source holds these as a separate data set.
For assay [16] the target is unchanged. The assay is described as follows: SPR; ratio of koff at pH 6.0 to koff at pH 7.4. The source holds these as a separate data set.
The target is the same in assay [17]. Description: SPR; ratio of KD at pH 6.0 to KD at pH 7.4. This is another data set of the same source.
The target in assay [18] is T3, human transferrin receptor (hTfR). The assay is described as follows: SPR, pH 6.0. This is another data set of the same source.
Assay [19] has the same target. Description: SPR, pH 7.4. The source holds these as a separate data set.

Numbered stars: 1 amine (or outer) side, 2 acyl side, 3 side chain; on linkers, the order of the positions; unused ones are H or OH. Bridge positions count the residues as written; N and C are the ends. Square brackets hold non-standard residues; d marks the D form. * marks the point of attachment. F4aao = 4-(carboxymethoxy)-L-phenylalanine, O=C([C@H](Cc1ccc(OCC(=O)[*:3])cc1)N[*:1])[*:2]; X4 = 4‑(carboxymethyl)piperazine‑1‑carbonyl, O=C(O)CN1CCN(C(=O)*)CC1; NH(1-deoxy-D-glucityl) = OC[C@@H](O)[C@@H](O)[C@H](O)[C@@H](O)CN*; PEG4c = amino-tetraoxa (PEG4) carboxylic acid spacer; NMePhe(4-COOH) = CN[C@@H](Cc1ccc(C(=O)O)cc1)C(=O)O; Phe(3-COOH) = N[C@@H](Cc1cccc(C(=O)O)c1)C(=O)O; NMePhe(3-Cl) = CN[C@@H](Cc1cccc(Cl)c1)C(=O)O; Piperazinyl(4-CH2COOH) = O=C(O)CN1CCN(*)CC1; 3Pal(6-NH2) = Nc1ccc(C[C@H](N)C(=O)O)cn1; NMeW = CN[C@@H](Cc1c[nH]c2ccccc12)C(=O)O; Lys(N3) = [N-]=[N+]=NCCCC[C@H](N)C(=O)O; NMeY = CN[C@@H](Cc1ccc(O)cc1)C(=O)O; NMeF = CN[C@@H](Cc1ccccc1)C(=O)O

B1: 894_0531 (SEQ ID No. 81) (peptide)
peptide: AVXVWNYXIIQRXXC
modifications: MeF3C at 3; F4OMe at 8; Eva at 9; F3COO at 13; MeF3COO at 14; cyclic: chloroacetylated N-terminal Ala 1 joined to Cys 15; linker PEG4c on C-terminus
notes: As printed: A-V-MeF3C-V-W-N-Y-F4OMe-Eva-I-Q-R-F3COO-MeF3COO-C, linker PEG4c
Usually Kd stands for the concentration at which binding is half-saturated. A low value points to tighter binding. On to B1, for which the Kd in assay [1] came to 1.87 nM; in [2], 9.19 nM. Besides, the “dependency koff pH6.0/7.4” value in assay [3] was 13.5. The “dependency KD pH6.0/7.4” value in assay [4] is 4.91.

B2: 894_3493 (SEQ ID NO: 198) (peptide)
peptide: AVXVWNRYIIRRYXC
modifications: MeF at 3; MeF4COO at 14; N-terminal Ala chloroacetylated and cyclised by thioether to Cys 15; linker G-de-de-de-ds-ds-KN3-NH2 on Cys 15 (de = D-Glu, ds = D-Ser, KN3 = azido-lysine, C-terminal amide)
notes: Cyclic peptide with linker
Consider B2, for which, in [5], the Kd came to 1040 nM.

On to {CH2CO}-AV[NMePhe(3-Cl)]VWNY[F4aao](NH(1-deoxy-D-glucityl))IIE(NH(1-deoxy-D-glucityl))QF[NMeY]C-{PEG4c-NH2} (thioether N-15) [894_0512 (SEQ ID NO: 39)], for which the Kd turned out to be 12.4 nM in assay [6] and 1.48 nM in [8]. The “dependency KD pH6.0/7.4” value in assay [7] amounted to 8.37. For the same molecule, the “dependency koff pH6.0/7.4” value in assay [9] was determined as 25.6.

As for {CH2CO}-AV[NMePhe(3-Cl)]VWNY[F4aao](Piperazinyl(4-CH2COOH))IIE(NH(1-deoxy-D-glucityl))QF[NMeY]C-{PEG4c-NH2} (thioether N-15) [894_0510 (SEQ ID NO: 37)], the Kd in [6] is 27.9 nM; in assay [8] it was 1.54 nM. Besides, the “dependency KD pH6.0/7.4” value in [7] is 18.1. Besides, in assay [9], the “dependency koff pH6.0/7.4” value turned out to be 33.9.

B3: 894_3486 (peptide)
peptide: {CH2CO}-AV[NMeF]V[NMeW]N[3Pal(6-NH2)]YIIKRY[NMePhe(4-COOH)]CG[Lys(N3)]-NH2
modifications: thioether N-15
SMILES: CC[C@H](C)[C@@H]1NC(=O)[C@H](Cc2ccc(O)cc2)NC(=O)[C@H](Cc2ccc(N)nc2)NC(=O)[C@H](CC(N)=O)NC(=O)[C@H](Cc2c[nH]c3ccccc23)N(C)C(=O)[C@H](C(C)C)NC(=O)[C@H](Cc2ccccc2)N(C)C(=O)[C@H](C(C)C)NC(=O)[C@H](C)NC(=O)CSC[C@@H](C(=O)NCC(=O)N[C@@H](CCCCN=[N+]=[N-])C(N)=O)NC(=O)[C@H](Cc2ccc(C(=O)O)cc2)N(C)C(=O)[C@H](Cc2ccc(O)cc2)NC(=O)[C@H](CCCNC(=N)N)NC(=O)[C@H](CCCCN)NC(=O)[C@H]([C@@H](C)CC)NC1=O
In the case of B3, the “dependency koff pH6.0/7.4” value in [10] amounted to 8.92. Further, the Kd in [11] is 2.94 nM; in assay [12] it was 13.9 nM. Besides, the “dependency KD pH6.0/7.4” value in assay [13] was determined as 4.73.

B4: 894_0592 (SEQ ID No. 118) (peptide)
peptide: AVXVXNYYIIKRYXC
modifications: not fully specified; MeF at 3; MeW at 5; MeF4COO at 14; cyclic: chloroacetylated N-terminal Ala 1 joined to Cys 15; linker PEG4c on C-terminus
notes: As printed: A-V-MeF-V-MeW-N-Y-Y-I-I-K-R-Y-MeF4COO-C, linker PEG4c
Turning to B4, the Kd in assay [14] turned out to be 1.11 nM; in assay [15], 4.31 nM. Further, in assay [16], the “dependency koff pH6.0/7.4” value was 4.21. For the same molecule, in assay [17], the “dependency KD pH6.0/7.4” value is 3.88.

Consider {CH2CO}-AV[NMePhe(3-Cl)]VWNY[F4aao](Piperazinyl(4-CH2COOH))IIK(X4)QF[NMeY]C-{PEG4c-NH2} (thioether N-15) [894_0511 (SEQ ID NO: 38)], for which the Kd in assay [6] stood at 14.8 nM; in assay [8] it was 4.75 nM. Further, the “dependency KD pH6.0/7.4” value in assay [7] turned out to be 3.12. Moreover, the “dependency koff pH6.0/7.4” value in assay [9] was 12.5.

B5: 894_0530 (SEQ ID No. 80) (peptide)
peptide: AVXVWNYXIIQRXXC
modifications: MeF3C at 3; F4OMe at 8; Eva at 9; F3COO at 13; MeF4COO at 14; cyclic: chloroacetylated N-terminal Ala 1 joined to Cys 15; linker PEG4c on C-terminus
notes: As printed: A-V-MeF3C-V-W-N-Y-F4OMe-Eva-I-Q-R-F3COO-MeF4COO-C, linker PEG4c
For B5, the Kd in assay [1] was determined as 0.529 nM; in assay [2] it was 5.73 nM. For the same molecule, the “dependency koff pH6.0/7.4” value in assay [3] amounted to 22.2. For the same molecule, in [4], the “dependency KD pH6.0/7.4” value was 10.8.

B6: 894_0518 (SEQ ID No. 72) (peptide)
peptide: {CH2CO}-AV[NMePhe(3-Cl)]VWNY[F4aao]IIQR[Phe(3-COOH)][NMeY]C-PEG4c
modifications: thioether N-15
notes: As printed: A-V-MeF3C-V-W-N-Y-F4aao-I-I-Q-R-F3COO-MeY-C, linker PEG4c
B6: the Kd came to 3.34 nM in [1] and 6.32 nM in assay [2]. The “dependency koff pH6.0/7.4” value in [3] turned out to be 5.72. For the same molecule, in [4], the “dependency KD pH6.0/7.4” value is 1.89.

B7: 894_3495 (SEQ ID NO: 199) (peptide)
peptide: AVXVWNRYIIRRYXC
modifications: MeF at 3; MeY at 14; N-terminal Ala chloroacetylated and cyclised by thioether to Cys 15; linker G-de-de-de-ds-ds-KN3-NH2 on Cys 15 (de = D-Glu, ds = D-Ser, KN3 = azido-lysine, C-terminal amide)
notes: Cyclic peptide with linker
In assay [5], B7 displayed a Kd of 531 nM.

B8: 894_3434 (SEQ ID NO: 64) (peptide)
peptide: AVXVWNYXIIRRYXC
modifications: 3 MeF; 8 F4aao(PEG8Me); 14 MeY; chloroacetyl-Ala1 cyclised to Cys15; linker G-KN3 after Cys15; terminus -NH2
notes: The linker G-KN3 (Gly, N6-diazo-L-lysine) follows Cys15; whether the listing entry holds these two residues cannot be seen here
Regarding B8, the values for the Kd in assay [18] and in assay [19] were 32.3 nM and 8.74 nM, respectively.

B9: 894_0610 (SEQ ID NO: 61) (peptide)
peptide: AVXVXNYYIIKRYXC
modifications: 3 MeF3C; 5 3Imp; 14 MeY; chloroacetyl-Ala1 cyclised to Cys15; linker PEG4c after Cys15; terminus -NH2
As for B9, the Kd in [18] is 7.47 nM; in assay [19], 0.861 nM.

B10: 894_0591 (SEQ ID No. 117) (peptide)
peptide: AVXVXNYYXIKRYXC
modifications: not fully specified; MeF at 3; MeW at 5; Eva at 9; MeY at 14; cyclic: chloroacetylated N-terminal Ala 1 joined to Cys 15; linker PEG4c on C-terminus
notes: As printed: A-V-MeF-V-MeW-N-Y-Y-Eva-I-K-R-Y-MeY-C, linker PEG4c
Take B10: the Kd in assay [14] was determined as 7.64 nM; in [15] it was 13.8 nM. The “dependency koff pH6.0/7.4” value in assay [16] amounted to 3.29. Besides, the “dependency KD pH6.0/7.4” value in assay [17] worked out at 1.81.
